This is an account of results in publication PMC3638400 (Philosophical Transactions of the Royal Society B: …, 2013).

Data set [1] deals with desmin (assembled into filaments, or immobilised on a sensor chip) (not stated (chicken gizzard desmin or recombinant human desmin prepared)) (UniProt P17661). Briefly: co-sedimentation; high-speed; filaments assembled at 0.2 mg ml^-1 with WT CRYAB at 1 : 1 molar ratio; 20 mM HEPES, 100 mM NaCl, 1 mM MgCl2, 1 mM DTT, pH 6.3; 23, 39 or 44°C.
Data set [2] concerns the molecule itself. The data set can be described thus: SEC; Superformance column packed with Fractogel EMD BioSEC, calibrated with protein standards; 20 mM Tris-HCl pH 7.4, 100 mM NaCl, room temperature; self-association into oligomers. On the technique in general: Size exclusion chromatography separates by hydrodynamic size, large species first.
The target of data set [3] is T1, filaments of keratins 7 and 18 (human, UniProt P08729 1-469; P05783 1-430).
T1 construct: keratin 7, recombinant human; keratin 18, recombinant human; In vitro assembled keratin filaments; also called keratin filaments
T1 sequence (looked up) 1: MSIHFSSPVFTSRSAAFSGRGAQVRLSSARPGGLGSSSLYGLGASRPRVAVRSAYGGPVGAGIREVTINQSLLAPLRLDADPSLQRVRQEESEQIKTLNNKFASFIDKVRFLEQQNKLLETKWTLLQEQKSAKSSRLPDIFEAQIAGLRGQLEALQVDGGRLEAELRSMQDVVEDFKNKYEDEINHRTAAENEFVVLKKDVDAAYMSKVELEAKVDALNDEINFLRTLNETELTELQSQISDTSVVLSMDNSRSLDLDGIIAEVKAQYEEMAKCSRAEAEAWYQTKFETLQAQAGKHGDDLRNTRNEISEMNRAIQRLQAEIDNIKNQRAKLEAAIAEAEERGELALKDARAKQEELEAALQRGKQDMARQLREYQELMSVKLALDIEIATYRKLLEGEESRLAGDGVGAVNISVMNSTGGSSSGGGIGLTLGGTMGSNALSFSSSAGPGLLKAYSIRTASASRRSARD
T1 sequence (looked up) 2: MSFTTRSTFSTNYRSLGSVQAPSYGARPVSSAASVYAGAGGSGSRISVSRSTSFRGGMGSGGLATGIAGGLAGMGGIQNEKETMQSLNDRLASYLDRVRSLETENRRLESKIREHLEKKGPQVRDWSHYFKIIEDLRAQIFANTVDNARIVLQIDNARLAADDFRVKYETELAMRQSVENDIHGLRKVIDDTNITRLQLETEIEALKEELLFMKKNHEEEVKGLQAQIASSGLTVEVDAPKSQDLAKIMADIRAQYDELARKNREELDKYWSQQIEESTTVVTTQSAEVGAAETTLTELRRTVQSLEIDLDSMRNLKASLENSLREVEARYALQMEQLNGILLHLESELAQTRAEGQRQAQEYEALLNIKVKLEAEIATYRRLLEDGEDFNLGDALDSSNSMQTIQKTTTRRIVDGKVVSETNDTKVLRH
Briefly: co-sedimentation; filaments assembled with the sHSP (desmin : sHSP 1 : 1 molar ratio) at three temperatures (22, 37, 44°C named in the text); pellet and supernatant by SDS-PAGE, Coomassie Blue. To be noted: both partners purified.

Data set [4] addresses T2, glial fibrillary acidic protein (GFAP) (human, UniProt P14136 1-432).
T2 construct: glial fibrillary acidic protein, recombinant human; Assembled into filaments for co-sedimentation and viscometry; immobilised on the chip for SPR; also called WT GFAP; GFAP filaments
The data set can be described thus: SPR; Biacore 3000; desmin, GFAP and vimentin immobilised on a CM5 chip; CRYAB injected at 20 g ml^-1 (so in the source) for 7 min at 37°C, then washed 7 min; 10 mM HEPES pH 7.4, 0.15 M NaCl, 3.4 mM EDTA, 0.005% P20; double referencing. To be noted: both partners purified.

Changes are numbered by the printed parent chain. Numbers in names are those of the source.

T2 sequence (P14136 whole entry): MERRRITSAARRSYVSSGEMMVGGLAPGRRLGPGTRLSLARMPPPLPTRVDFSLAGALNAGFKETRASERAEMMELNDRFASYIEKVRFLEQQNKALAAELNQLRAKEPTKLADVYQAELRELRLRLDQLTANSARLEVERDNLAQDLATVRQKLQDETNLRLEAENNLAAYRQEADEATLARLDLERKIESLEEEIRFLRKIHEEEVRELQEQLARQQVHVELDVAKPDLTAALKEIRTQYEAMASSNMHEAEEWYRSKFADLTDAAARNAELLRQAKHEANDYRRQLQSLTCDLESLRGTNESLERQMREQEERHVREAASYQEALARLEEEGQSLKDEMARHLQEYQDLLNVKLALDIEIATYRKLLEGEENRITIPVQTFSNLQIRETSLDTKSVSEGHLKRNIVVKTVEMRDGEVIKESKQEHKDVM

Consider “wild-type αB-crystallin (CRYAB, HSPB5) (from UniProt P02511 1-175) (natural protein)”, for which, in data set [1], the percent of the total CRYAB co-sedimented (pH 6.3, 39°C to 44°C) is above 35 per cent.

B1: wild-type αB-crystallin (CRYAB, HSPB5) (natural protein, human, UniProt P02511 1-175, looked up)
chain: MDIAIHHPWIRRPFFPFHSPSRLFDQFFGEHLLESDLFPTSTSLSPFYLRPPSFLRAPSWFDTGLSEMRLEKDRFSVNLDVKHFSPEELKVKVLGDVIEVHGKHEERQDEHGFISREFHRKYRIPADVDPLTITSSLSSDGVLTVNGPRKQVSGPERTIPITREEKPAVTAAPKK
notes: αB-crystallin (CRYAB, HSPB5), human; Polydisperse oligomer (apparent size about 520 kDa by SEC); also called WT CRYAB; WT αB-crystallin
Regarding B1, the binding result in data set [2] and in data set [3] was “binds” throughout.

B2: R120G αB-crystallin (R120G CRYAB) (natural protein, human, UniProt P02511 1-175, looked up)
chain: B1 chain with R120G
notes: αB-crystallin (CRYAB, HSPB5), human, with the disease-causing mutation R120G; Mutation found in a human family with desmin-related myopathy and cataract; Oligomer of apparent size 684 kDa by SEC; also called CRYAB R120G
Take B2: the binding result in data set [2], in data set [4] and in data set [3] was “binds” in each case.
